Data taken from US20250257130A1 (NONA BIOSCIENCES SUZHOU, published 2025).

Legend:
[1] = target: T1, human ROR1 on cells (HEK293T-hROR1, PANC-1, A549) (human, UniProt Q01973 30-937); assay: flow cytometry on PANC-1 cells, MFI (FITC-A Median) [continued) C]
T1 construct: whole, on cells; one molecule for the three cell lines; also called huROR1; cell surface ROR1
Method: (§1) Binding of recombinant anti-ROR1 antibodies to human or cynomolgus ROR1-overexpressing cells was tested by flow cytometry. In this example, ROR1-expressing cell lines are HEK293T cell lines that had been transfected to express human ROR1 on the surface (HEK293T-hu ROR1, KYINNO BIOTECHNOLOGY CO., LTD, Catalog #KC-1018), CHO-K1 cell lines that had been transfected to express cynomolgus ROR1 (CHOK1-cyno ROR1), PANC-1 (ATCC, catalog: CRL-1469) or A549 cell lines (Shanghai Institute of Biochemistry and Cell Biology, Chinese Academy of Sciences).
(§2) In brief, anti-ROR1 antibodies were serially diluted in staining buffer (PBS containing 2% FBS). Antibody solution was incubated with 1×10⁵ cells at 4° C. for 1 hour. […] After 1-hour incubation at 4° C., cells were washed twice with staining buffer and subjected to flow cytometry. PR000374 (Bench marker 1) and non-relevant IgG isotype control (Crownbio) were used as positive and negative controls, respectively.

[2] = target: T1, human ROR1 on cells (HEK293T-hROR1, …); assay: flow cytometry, PANC-1 cells
Method: as §2

[3] = target: T1, human ROR1 on cells (HEK293T-hROR1, …); assay: flow cytometry on PANC-1 cells, MFI (FITC-A Median)
Method: as §1, §2

[4] = target: T2, cynomolgus ROR1 on CHO-K1-cynoROR1 cells (cynomolgus monkey, UniProt A0A2K5WTX7 30-937); assay: flow cytometry on CHOK1-cynoROR1 cells, MFI (APC-A Median) [middle panel, letter not given]
T2 construct: whole, on cells
Method: as §1, §2

[5] = target: T2, cynomolgus ROR1 on CHO-K1-cynoROR1 cells; assay: flow cytometry, CHO-K1-cynoROR1 cells
Method: as §1, §2

[6] = target: T3, Human ROR1-ECD-his (Acro Biosystems RO1-H522y) (human, UniProt Q01973 30-406); assay: BLI in-tandem, row = 1st Ab; competitor (2nd Ab): PR005340
T3 construct: extracellular domain; bought protein; also called hROR1-ECD-his; hu-ROR1-ECD-his
T3 sequence (Q01973 30-406): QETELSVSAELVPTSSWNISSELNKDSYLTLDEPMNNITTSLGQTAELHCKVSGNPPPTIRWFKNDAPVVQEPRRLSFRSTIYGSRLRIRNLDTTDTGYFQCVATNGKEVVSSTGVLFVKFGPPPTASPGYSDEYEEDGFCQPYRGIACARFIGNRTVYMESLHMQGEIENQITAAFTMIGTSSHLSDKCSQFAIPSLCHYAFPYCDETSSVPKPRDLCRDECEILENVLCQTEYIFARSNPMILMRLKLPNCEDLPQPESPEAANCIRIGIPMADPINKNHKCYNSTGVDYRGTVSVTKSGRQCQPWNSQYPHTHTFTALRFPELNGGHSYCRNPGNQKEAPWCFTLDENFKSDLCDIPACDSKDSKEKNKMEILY
Text: (§3) To determine if anti-ROR1 antibodies bind to human ROR1 on different or approximate binding epitopes, the ForteBio Octet® RED96e platform was used to perform epitope competition experiments on the anti-ROR1 antibodies. Human ROR1 protein (Acrobiosystems, #RO1-H522y) was biotinylated and then captured onto SA biosensors (ForteBio, #18-5020) to reach loading level of 0.3-0.4 nm. The in-tandem competition assay format was applied and it contains two association steps. Firstly, the antigen-loaded biosensors bind to each antibody (a.k.a, First antibody, 1st Ab) with a saturating concentration of 200 nM for 180 seconds to reach equilibrium and then secondly bind to the competing antibodies (a.k.a, Second antibody, 2nd Ab) of 200 nM for 180 seconds. The second binding signals were recorded as the 100% signal of each antibody when the first antibodies were replaced by kinetics buffer. All the binding data were analyzed using ForteBio Data Analysis 11.0 software. The inhibition rate is calculated by the following formula: […]

[7] = target: T3, Human ROR1-ECD-his (Acro Biosystems …); assay: BLI in-tandem, row = 1st Ab; competitor (2nd Ab): PR005338
Text: as §3

[8] = target: T1, human ROR1 on cells (HEK293T-hROR1, …); assay: flow cytometry on PANC-1 cells, MFI (Median-APC) [middle panel, letter not given]
[9] = target: T1, human ROR1 on cells (HEK293T-hROR1, …); assay: flow cytometry on PANC-1 cells, MFI (APC-A Median)
Method: as §1, §2

[10] = target: T3, Human ROR1-ECD-his (Acro Biosystems …); assay: BLI in-tandem, row = 1st Ab; competitor (2nd Ab): PR007417
Text: as §3

[11] = target: T1, human ROR1 on cells (HEK293T-hROR1, …); assay: flow cytometry, PANC-1 cells; remark: listed apart in the source
Method: as §2
Binding activity of the variants to PANC-1 cells were tested using the same method described in example 5.1. The results were shown in FIGS. 7-8 and Table 11 and Table 12.

[12] = target: T3, Human ROR1-ECD-his (Acro Biosystems …); assay: BLI, antibody on AHC sensor, ROR1-His 5-80 nM in solution
Method: The captured biosensors were then dipped in wells containing 2-fold serial dilutions of antigen proteins to detect association signals, followed by dissociation steps in wells containing 1× kinetic buffer. Human ROR1 hits-tagged protein (Acrobiosystems, #RO1-H522y) was diluted from 80 nM to 5 nM; the association phase was 180 seconds, and the dissociation phase was 600 seconds. The sensorgrams were recorded and the reference signals were subtracted before curve fitting using ForteBio Data Analysis 11.0 software. Association rates (kₒₙ) and dissociation rates (kdis) were calculated using a simple one-to-one Langmuir binding model. The equilibrium dissociation constant (KD) was calculated as the ratio of kdis/kₒₙ.

[13] = target: T1, human ROR1 on cells (HEK293T-hROR1, …); assay: flow cytometry on PANC-1 cells, MFI (Median-APC) [top panel]
[14] = target: T1, human ROR1 on cells (HEK293T-hROR1, …); assay: flow cytometry on PANC-1 cells, MFI (Median-APC) [bottom panel, letter not given]
[15] = target: T4, hu-ROR2-ECD-his (Acrobiosystems RO2-H52E5) (human, UniProt Q01974 34-403); assay: BLI, antibody on AHC sensor, ROR2-His in solution
T4 construct: extracellular domain; bought protein; also called Human ROR2 his-tagged protein; Human ROR2, His Tag
T4 sequence (Q01974 34-403): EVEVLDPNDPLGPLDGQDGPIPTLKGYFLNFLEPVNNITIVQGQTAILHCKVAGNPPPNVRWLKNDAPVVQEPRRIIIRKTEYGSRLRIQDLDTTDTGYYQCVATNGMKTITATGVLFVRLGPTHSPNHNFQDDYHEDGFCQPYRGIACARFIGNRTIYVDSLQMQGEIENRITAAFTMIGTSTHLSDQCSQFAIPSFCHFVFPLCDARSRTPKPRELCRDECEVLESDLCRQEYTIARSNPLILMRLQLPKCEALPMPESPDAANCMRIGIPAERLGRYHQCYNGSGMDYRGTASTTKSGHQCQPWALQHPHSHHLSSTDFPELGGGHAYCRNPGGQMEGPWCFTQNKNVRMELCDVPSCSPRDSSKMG
Method: In the example, binding kinetics of anti-ROR1 antibodies to soluble ROR2 protein were analyzed by using Bio-Layer Interferometry (BLI) analysis on Fortebio Octet Red384 instrument (Fortebio). […] The captured biosensors were then dipped in wells containing 2-fold serial dilutions of antigen proteins to detect association signals, followed by dissociation steps in wells containing 1× kinetic buffer. Human ROR2 his-tagged protein (Acrobiosystems, #RO2-H52E5) was diluted from 600 nM to 37.5 nM; the association phase was 180 seconds, and the dissociation phase was 180 seconds. The sensorgrams were recorded and the reference signals were subtracted before curve fitting using ForteBio Data Analysis 11.0 software. Association rates (kₒₙ) and dissociation rates (kdis) were calculated using a simple one-to-one Langmuir binding model. The equilibrium dissociation constant (KD) was calculated as the ratio of kdis/kₒₙ.

[16] = target: T2, cynomolgus ROR1 on CHO-K1-cynoROR1 cells; assay: flow cytometry on CHOK1-cynoROR1 cells, MFI (APC-A Median) [top panel]
Method: as §1, §2

[17] = target: T3, Human ROR1-ECD-his (Acro Biosystems …); assay: BLI in-tandem, row = 1st Ab; competitor (2nd Ab): PR007424
Text: as §3

[18] = target: T3, Human ROR1-ECD-his (Acro Biosystems …); assay: BLI in-tandem, row = 1st Ab; competitor (2nd Ab): PR000374
Text: as §3

T1 sequence (Q01973 30-937): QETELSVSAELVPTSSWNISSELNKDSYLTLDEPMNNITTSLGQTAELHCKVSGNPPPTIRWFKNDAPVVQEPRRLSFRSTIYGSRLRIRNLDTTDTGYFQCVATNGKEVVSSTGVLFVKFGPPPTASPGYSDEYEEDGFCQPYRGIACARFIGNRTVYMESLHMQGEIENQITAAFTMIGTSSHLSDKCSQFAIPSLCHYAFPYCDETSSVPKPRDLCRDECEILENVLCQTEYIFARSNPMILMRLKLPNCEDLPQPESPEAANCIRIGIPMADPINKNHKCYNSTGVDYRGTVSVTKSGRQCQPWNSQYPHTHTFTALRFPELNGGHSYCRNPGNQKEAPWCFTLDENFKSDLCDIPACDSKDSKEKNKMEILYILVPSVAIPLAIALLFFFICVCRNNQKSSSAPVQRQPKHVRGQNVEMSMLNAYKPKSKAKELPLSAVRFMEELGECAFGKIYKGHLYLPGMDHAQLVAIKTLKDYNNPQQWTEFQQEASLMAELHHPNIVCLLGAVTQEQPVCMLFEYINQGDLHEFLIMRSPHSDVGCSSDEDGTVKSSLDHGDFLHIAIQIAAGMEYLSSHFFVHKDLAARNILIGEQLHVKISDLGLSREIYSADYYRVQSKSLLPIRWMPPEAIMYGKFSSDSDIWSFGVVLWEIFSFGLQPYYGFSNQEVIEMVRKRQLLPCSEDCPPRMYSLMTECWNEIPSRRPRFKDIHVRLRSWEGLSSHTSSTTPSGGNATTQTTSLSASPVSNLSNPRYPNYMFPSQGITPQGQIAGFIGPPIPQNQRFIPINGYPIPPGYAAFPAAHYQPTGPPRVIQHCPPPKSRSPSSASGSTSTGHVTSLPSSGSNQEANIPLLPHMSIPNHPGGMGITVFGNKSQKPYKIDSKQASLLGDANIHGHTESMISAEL

Row | Binder | EC50 (read off the curve) [1] [nM] | Max [2] | EC50 (read off the curve) [3] [nM] | EC50 (read off the curve) [4] [nM] | Max [5] | Inhibition (%) [6] [%] | Inhibition (%) [7] [%] | EC50 (read off the curve) [8] [nM] | EC50 (read off the curve) [9] [nM] | Inhibition (%) [10] [%] | TOP [11] | Kd [12] [nM] | koff [12] [s⁻¹] | kon [12] [M⁻¹ s⁻¹] | EC50 (read off the curve) [13] [nM] | EC50 (read off the curve) [14] [nM] | binding result [15] | EC50 (read off the curve) [16] [nM] | Inhibition (%) [17] [%] | Inhibition (%) [18] [%]
1 | PR005344 (antibody, human IgG1, V domains shown, HCAb (heavy chain-only, human IgG1 Fc), no light chain) VH: EVQLVESGGGLVKPGGSLRLSCAASGFTFSDYYMSWIRQAPGKGLEWISYISNSSSSISYANSVKGRFTVSRDNAKNSLYLQMNSLRAEDTALYYCARSPRGAFYEDFDYWGQGTLVTVSS |  | 12400 | ~20 | ~10 | 30700 |  |  |  |  |  |  |  |  |  |  |  |  |  |  | 
2 | PR005349 (antibody, human IgG1, V domains shown, HCAb (heavy chain-only, human IgG1 Fc), no light chain) VH: EVQLVESGGGLVKPGGSLRLSCAASGFTFSDYYMSWIRQAPGKGLEWISYISNSSSSISYANSVKGRFTVSRDNAKNSLYLQMNSLRAEDTALYYCARSPRSAFYEDFDYWGQGTLVTVSS | ~10 | 27100 |  |  |  |  |  |  |  |  |  |  |  |  |  |  |  |  |  | 
3 | PR005340 (antibody, human IgG1, V domains shown, HCAb (heavy chain-only, human IgG1 Fc), no light chain) VH: EVQLVESGGGLVKPGGSLRLSCAASGFTFSDYYMSWIRQAPGKGLEWISYISSSGSTIHYADSVKGRFTISRDNAKNSLYLQMNSLRAEDTAIYYCARDIPSSSSDWVSLQFDYWGQGTLVTVSS |  | 17500 |  |  | 36400 | 109 | 106 | ~2 | ~2 | 109 | 84900 | 1.2 | 0.000171 | 143000 | ~3 | ~2 | no binding (tested: 37.5-600 nM) | ~3 | 106 | -0.17
4 | PR005338 (antibody, human IgG1, V domains shown, HCAb (heavy chain-only, human IgG1 Fc), no light chain) VH: EVQLVESGGGLVKPGGSLRLSCAASGFTFSDYYMSWIRQAPGKGLEWISYISSSGTTIHYADSVKGRFTISRDNAKNSLYLQMNSLRTEDTAVYYCARDAPSSNSDWVSLQFDYWGQGTLVTVSS |  | 12700 | ~7 | ~8 | 33300 | 108 | 104 |  |  | 108 |  | 2.4 | 0.000316 | 132000 |  |  | no binding (tested: 37.5-600 nM) |  | 102 | -3.02

Other lines, results leading:

Row | EC50 (read off the curve) [1] [nM] | Max [2] | EC50 (read off the curve) [3] [nM] | EC50 (read off the curve) [4] [nM] | Max [5] | Inhibition (%) [6] [%] | Inhibition (%) [7] [%] | EC50 (read off the curve) [8] [nM] | EC50 (read off the curve) [9] [nM] | Inhibition (%) [10] [%] | TOP [11] | Kd [12] [nM] | koff [12] [s⁻¹] | kon [12] [M⁻¹ s⁻¹] | EC50 (read off the curve) [13] [nM] | EC50 (read off the curve) [14] [nM] | binding result [15] | EC50 (read off the curve) [16] [nM] | Inhibition (%) [17] [%] | Inhibition (%) [18] [%] | Binder
5 | ~9 | 23300 |  |  |  |  |  |  |  |  |  |  |  |  |  |  |  |  |  |  | PR005352 (antibody, human IgG1, V domains shown, HCAb (heavy chain-only, human IgG1 Fc), no light chain) VH: EVQLVESGGGLVKPGGSLRLSCAASGFTFSDYYMSWIRQAPGKGLEWISYISSSGGSIYYADSVKGRFTISRDNAKNSLYLQMNRLRAEDTALYYCARTPPSSNNWYEDFDYWGQGALVTVSS
6 |  |  |  |  |  | 111 | 108 |  |  | 111 | 70800 | 1.01 | 0.000284 | 281000 |  | ~0.6 | no binding (tested: 37.5-600 nM) |  | 107 | -0.73 | PR007424 (antibody, V domains shown, bivalent form (HCAb) variant of PR005340, no light chain) VH: EVQLVESGGGLVKPGGSLRLSCAASGFTFSDYYMSWIRQAPGKGLEWISYIDSSGRPLAYADSVKGRFTISRDNAKNSLYLQMNSLRAEDTAIYYCARDMPSSSSDWVSLQFDYWGQGTLVTVSS
7 |  |  |  |  |  | 116 | 114 | ~0.8 |  | 113 | 83800 | 0.18 | 4.86e-05 | 271000 |  |  | no binding (tested: 37.5-600 nM) |  | 111 | 10.2 | PR007417 (antibody, V domains shown, bivalent form (HCAb) variant of PR005340, no light chain) VH: EVQLVESGGGLVKPGGSLRLSCAASGFTFSDFYMSWIRQAPGKGLEWISYISSSGSTRYYADSVKGRFTISRDNAKNSLYLQMNSLRAEDTAIYYCARDIPSSSSDWVDLQFDYWGQGTLVTVSS
